Here are results for 8 molecules from patent US20150299285A1.

Bridges are numbered along the chain shown (N, C = ends). Primed or numbered codes have the meaning given here. Where no end group is shown, it is not given here. [ ]: non-standard residue; d: D form. PEG4′ = non-peptide PEG4 spacer in the linking moiety; PEG8″ = non-peptide PEG8 spacer in the linking moiety

Common to all, as to test: cell-based or functional assay
Assay [1] addresses insulin receptor subtype B (human), P06213.
Assay [2] deals with insulin receptor subtype A (human), P06213.
Assay [3] deals with human IGF-1 receptor (human) (UniProt P08069).
In assay [4] the target is insulin receptor subtype A (human) (UniProt P06213).
Assay [5] deals with insulin receptor subtype B (human) (UniProt P06213).

B1: MIU-68: B0, B22-PEG10K di-PEGylated B^1(H5,Y16,L17, K22)25-C^1(K8)-A^1(N18,21) (ligand)
chain: {PEG 10 kDa}-GPEHLCGAELVDALYLVCGDK(PEG 10 kDa)GFYGYGSSSRKAPQTGIVDECCFRSCDLRRLENYCN
modifications: disulfide 18-56, 42-47, 6-43
On to B1, for which the % Insulin Activity (in vitro; assay not stated) in assay [1] amounted to 0.1%; in assay [2], 0.4%.

B2: MIU-35: B^1(H5, H10, Y16, L17)25-C^1-A^1 (H8, N18, N21) (ligand)
chain: GPEHLCGAHLVDALYLVCGDRGFYGYGSSSRRAPQTGIVDECCHRSCDLRRLENYCN
On to B2, for which the % Insulin Activity (in vitro; assay not stated) in assay [1] worked out at 17.4%; in assay [2] it was 61.4%.

B3: DP19LysC (ligand)
chain: B2 chain
In the case of B3, the results for the EC50, Receptor Phosphorylation in assay [3], in assay [4] and in assay [5] were 20.7 nM, 0.3 nM and 1.2 nM, respectively.
In assay [2], GPEHLCGAELVDALYLVCGDRGFY[PEG8″]K(PEG 20 kDa)[PEG4′]GIVDECCFRSCDLRRLENYCN (ligand, disulfide 18-47, 33-38, 6-34) [MIU-56: C8-PEG20K B^1(H5, Y16, L17)25-PEG8-K-PEG4-A^1(N18, N21)] returned a % Insulin Activity (in vitro; assay not stated) of 14.8%.

B4: MIU-69: B0, A14-PEG10K di-PEGylated B^1(H5,Y16,L17)25-C^1(K8)-A^1(K14, N18,21) (ligand)
chain: {PEG 10 kDa}-GPEHLCGAELVDALYLVCGDRGFYGYGSSSRKAPQTGIVDECCFRSCDLK(PEG 10 kDa)RLENYCN
modifications: disulfide 18-56, 42-47, 6-43
On to B4, for which the % Insulin Activity (in vitro; assay not stated) was 0.5% in assay [1] and 1% in assay [2].

B5: MIU-57: B1-PEG20K B^1(H5,Y16,L17)25-C^1-A^1(N18,21), P05019 49-110 (ligand)
chain: {PEG 20 kDa}-GPEHLCGAELVDALYLVCGDRGFYGYGSSSRRAPQTGIVDECCFRSCDLRRLENYCN
modifications: disulfide 18-56, 42-47, 6-43
Turning to B5, the % Insulin Activity (in vitro; assay not stated) in assay [1] came to 1.1%; in assay [2], 3.1%.

B6: MIU-67: B0, C8-PEG10K di-PEGylated B^1(H5,Y16,L17)25-C^1(K8)-A^1(N18,21) (ligand)
chain: {PEG 10 kDa}-GPEHLCGAELVDALYLVCGDRGFYGYGSSSRK(PEG 10 kDa)APQTGIVDECCFRSCDLRRLENYCN
modifications: disulfide 18-56, 42-47, 6-43
On to B6, for which the % Insulin Activity (in vitro; assay not stated) was determined as 0.1% in assay [1] and 0.2% in assay [2].

B7: MIU-58: B1-PEG20K-B1- Dimer, P05019 49-110 (ligand)
chain: {PEG 20 kDa}-GPEHLCGAELVDALYLVCGDRGFYGYGSSSRRAPQTGIVDECCFRSCDLRRLENYCN
modifications: disulfide 18-56, 42-47, 6-43; also: dimer: two chains linked head to head via 20 kDa PEG
In the case of B7, the % Insulin Activity (in vitro; assay not stated) in assay [1] is 5.8%; in assay [2] it was 19.7%.
